The results in this text go back to US20240343773A1.

Where a chain is given by its changes, count along the chain named. Ends that are not written are not given here.

In this test the target is IGF1 receptor (IGF1R) (UniProt P08069). The experiment in a line: method not stated; in the absence of glucose.

B1: SEQ ID NO: 5 (ligand)
chain: FVDQHLCGSHLVEALYLVCGERGFFYTPKTYDGKGIVEQCCTSICSLYQLENYCG
modifications: ends and bridges not checked; cysteine pairing not given here
On to B1, for which the Kd was found to be 30.4 nM.

B2: SEQ ID NO: 7 (ligand)
chain: B1 chain with D3G
modifications: ends and bridges not checked; cysteine pairing not given here
The molecule B2 returned a Kd of 26.8 nM.

The term Kd denotes the concentration at which binding is half-saturated. A low value points to a tighter complex.
